B2: Cdc42Δ7Q61L (domain or fragment)
chain: not shown
notes: Human Cdc42 with seven residues deleted from the C terminus and the mutation Q61L; cloned into pGEX-2T; Loaded with [3H]GTP for SPA and with GMPPNP for NMR; 15N- or 15N/13C-labelled in some NMR experiments; also called truncated Cdc42; Cdc42Δ7Q61L·[3H]GTP; source: E. coli BL21, purified (glutathione-agarose, thrombin cleavage, gel filtration)

How the values were obtained:
Settings in all cases: both partners purified
Cdc42Δ7Q61L [1] = biological target: B2; experiment: scintillation proximity assay; direct binding; 30 nM GST-PAK, GST-ACK or His-tagged TOCA1 construct attached to a fluoromicrosphere via an anti-GST or anti-His antibody; Cdc42·[3H]GTP at increasing concentrations; apparent Kd from a direct binding isotherm
[2] = biological target: T1, TOCA1 HR1-SH3 (residues 330–545) (Xenopus tropicalis, UniProt Q6GUF4 330-545); experiment: scintillation proximity assay; competition; free effector domain titrated into 30 nM Cdc42·[3H]GTP and 30 nM GST-ACK (in Fig. 7B GST-ACK or GST-WASP GBD) immobilised on a fluoromicrosphere; Kd from competition binding isotherms
T1 construct: Xenopus tropicalis TOCA1, C-terminally extended HR1 construct, residues 330-545, in pMAT10-P; also called HR1-SH3 protein; TOCA1 330–545; source: E. coli, purified (Ni-NTA, 3C protease cleavage, gel filtration); not shown: His, N-terminal, cleaved; MBP, N-terminal, cleaved
T1 sequence (looked up): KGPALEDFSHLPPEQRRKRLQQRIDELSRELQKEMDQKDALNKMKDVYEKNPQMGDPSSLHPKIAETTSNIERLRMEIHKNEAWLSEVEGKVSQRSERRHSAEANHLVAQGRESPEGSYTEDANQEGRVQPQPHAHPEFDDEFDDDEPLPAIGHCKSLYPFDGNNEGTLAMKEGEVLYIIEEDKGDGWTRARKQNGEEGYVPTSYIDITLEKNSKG

full-length Cdc42Q61L = biological target: T2, full-length Cdc42Q61L (human, UniProt P60953 1-191, Q61L); experiment: as above
T2 construct: Human Cdc42, full length, Q61L; cloned into pGEX-6P-1; confirmed as full-length by mass spectrometry; Loaded with [3H]GTP for SPA; also called Cdc42FLQ61L; full-length [3H]GTP·Cdc42; source: E. coli BL21, purified (glutathione-agarose, 3C protease cleavage, gel filtration)

Cdc42Δ7Q61L [3] = biological target: B2; experiment: as above

Sequence of Cdc42Δ7Q61L (P60953 1-184 Q61L): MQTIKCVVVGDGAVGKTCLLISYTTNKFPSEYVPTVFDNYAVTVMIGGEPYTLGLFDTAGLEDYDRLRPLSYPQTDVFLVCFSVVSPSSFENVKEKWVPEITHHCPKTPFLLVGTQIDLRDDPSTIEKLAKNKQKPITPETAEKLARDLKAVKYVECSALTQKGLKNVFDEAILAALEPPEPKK
T2 sequence (P60953 whole entry Q61L): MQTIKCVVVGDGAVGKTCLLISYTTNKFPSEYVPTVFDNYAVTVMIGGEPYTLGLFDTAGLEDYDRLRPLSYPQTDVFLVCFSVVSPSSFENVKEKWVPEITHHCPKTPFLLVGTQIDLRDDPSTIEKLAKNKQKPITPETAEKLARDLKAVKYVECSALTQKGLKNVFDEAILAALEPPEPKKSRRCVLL

B1: TOCA1 HR1 domain (residues 330–426) with C-terminal His6 tag (domain or fragment, Xenopus tropicalis, UniProt Q6GUF4 330-426, looked up)
chain: KGPALEDFSHLPPEQRRKRLQQRIDELSRELQKEMDQKDALNKMKDVYEKNPQMGDPSSLHPKIAETTSNIERLRMEIHKNEAWLSEVEGKVSQRSE
notes: Xenopus tropicalis TOCA1 HR1 domain, residues 330-426, from cDNA NM_001005148, in pGEX-HisP; also called HR1-His6; C-terminally His-tagged TOCA1 HR1 domain construct; source: E. coli BL21, purified (glutathione-agarose, 3C protease cleavage, gel filtration); not shown: GST, N-terminal, cleaved; His6, C-terminal, kept
B1 was tested. Which Kd (Cdc42Δ7Q61L [1]) did it give?
The Kd was greater than 1000 nM.

Which Kd [2] does the source give for B2 here?
Its Kd is 4.6 µM.

B3: FBP17 HR1 domain (residues 385–486) (domain or fragment, Xenopus laevis, UniProt Q6GNV5 385-486, looked up)
chain: LKRGGSTPEDFSNLPPEQRRKKLQQKVDELNKDIQKEIDQRDALTKMRDVYTKNPQMGDAASVGQKLVEIGNNIEKLRVEVQKFEGWLAEVEGRLSARNDSS
notes: Xenopus laevis FBP17 HR1 domain, residues 385-486, from IMAGE clone 5514481, in pGEX-6P-1; also called HR1^FBP17; source: E. coli BL21, purified (glutathione-agarose, 3C protease cleavage, gel filtration); not shown: GST, N-terminal, cleaved
B3 was tested. Which Kd (full-length Cdc42Q61L) did it give?
Its Kd is 10 µM.

B4: CIP4 HR1 domain (residues 388–481) (domain or fragment, human, UniProt Q15642 388-481, looked up)
chain: TEDFSHLPPEQQRKRLQQQLEERSRELQKEVDQREALKKMKDVYEKTPQMGDPASLEPQIAETLSNIERLKLEVQKYEAWLAEAESRVLSNRGD
notes: also called HR1^CIP4; source: E. coli BL21, purified (glutathione-agarose, 3C protease cleavage, gel filtration); not shown: GST, N-terminal, cleaved
With B4 as the binder, how does the Kd (full-length Cdc42Q61L) read?
The Kd was 5 µM.

B5: N-WASP G protein-binding domain (GBD) (residues 197–255) (domain or fragment, Xenopus tropicalis, UniProt Q6NX29 197-255, looked up)
chain: KKKLTKADIGTPSNFQHIGHVGWDPNTGFDVNNLDPELKKLFDLCGISEAQLKDKETSK
notes: also called N-WASP GBD; N-WASP CRIB domain; source: E. coli BL21-CodonPlus-RIL, purified (glutathione-agarose, 3C protease cleavage, gel filtration); not shown: GST, N-terminal, cleaved
How did the Kd (Cdc42Δ7Q61L [3]) turn out when B5 was run?
The Kd was 0.037 µM.

B6: TOCA1 HR1 domain (residues 330–426), untagged (domain or fragment, Xenopus tropicalis, UniProt Q6GUF4 330-426, looked up)
chain: KGPALEDFSHLPPEQRRKRLQQRIDELSRELQKEMDQKDALNKMKDVYEKNPQMGDPSSLHPKIAETTSNIERLRMEIHKNEAWLSEVEGKVSQRSE
notes: Xenopus tropicalis TOCA1 (transducer of Cdc42-dependent actin assembly protein 1) HR1 domain, residues 330-426, from cDNA NM_001005148, in pGEX-6P-1; 15N- or 13C/15N-labelled in some NMR experiments; also called HR1^TOCA1; TOCA HR1 domain; source: E. coli BL21, purified (glutathione-agarose, 3C protease cleavage, gel filtration); not shown: GST, N-terminal, cleaved
For B6, which Kd (full-length Cdc42Q61L) is on record?
Its Kd is 5.39 µM.

And the Kd (Cdc42Δ7Q61L [3])?
The Kd was 6.05 µM.

Reference: article PMC4919469, “Investigation of the Interaction between Cdc42 and Its Effector TOCA1” (The Journal of Biological Chemistry, 2016)
